This note sets out measurements from patent publication US20210155712A1 (HUMMINGBIRD BIOSCIENCE HOLDINGS PTE, published 2021).

For assay [1], the target named is T1, human EGFR (human, UniProt P00533 25-645).
T1 construct: also called human HER1 (EGFR); human EGFR-His
Kind of assay: ELISA, coated human EGFR (HER1), antibody titrated, absorbance 450 nm. A general note: In an ELISA, binding on a coated surface is turned into a signal by an enzyme label.

Assay [2] addresses T2, human HER2 (human, UniProt P04626 23-652).
T2 construct: also called His-tagged HER2 protein
Put plainly: ELISA, coated human HER2, antibody titrated, absorbance 450 nm.

Assay [3] has as its target T3, human HER3 expressed on cells (human, UniProt P21860 20-1342).
T3 construct: HEK293 cells transfected with a vector encoding human HER3; Also used here for HER3 on U2OS PathHunter cells and cancer cell lines; also called HEK293 HER3 O/E cells; HER3-expressing cells
Put plainly: flow cytometry on HEK293 cells overexpressing human HER3, 20 ug/ml antibody, FITC anti-Fc secondary. The protocol:
The cells were washed thrice with FACS buffer (PBS with 5 mM EDTA and 0.5% BSA) and resuspended in FITC-conjugated anti-FC antibody (Invitrogen, USA) for 40 min at 2-8° C. Cells were washed again and resuspended in 200 μL of FACS flow buffer (PBS with 5 mM EDTA) for flow cytometric analysis using MACSQuant 10 (Miltenyi Biotec, Germany). After acquisition, all raw data were analyzed using Flowlogic software. Cells were gated using forward and side scatter profile percentage of positive cells was determined for native and overexpressing cell populations.

Assay [4] has as its target T2, human HER2. Put plainly: ELISA, plate coated with 0.1 ug/ml target polypeptide, antibody titrated, absorbance 450 nm. The protocol: (§1) ELISAs were used to determine the binding specificity of the antibodies. […] The antibodies were also analysed for their ability to bind to human EGFR and human HER2 (Sino Biological Inc., China).
(§2) ELISAs were carried out according to standard protocols. Briefly, 96-well plates (Nunc, Denmark) were coated with 0.1 μg/ml of target polypeptide in phosphate-buffered saline (PBS) for 16 h at 4° C. After blocking for 1 h with 1% BSA in Tris buffer saline (TBS) at room temperature, the anti-HER3 antibody was serially diluted with the highest concentration being 10 μg/ml, and added to the plate. Post 1 h incubation at room temperature, plates were washed three times with TBS containing 0.05% Tween 20 (TBS-T) and were then incubated with a HRP-conjugated […] antibody (Life Technologies, Inc., USA) for 1 h at room temperature. After washing, plates were developed with colorimetric detection substrate 3,3′,5,5′-tetramethylbenzidine (Turbo-TMB; Pierce, USA) for 10 min. The reaction was stopped with 2M H₂SO₄, and OD was measured at 450 nm.

For assay [5], the target named is T1, human EGFR. The assay is described as above. The protocol: as §1, §2

B1: 10D1F.FcA (antibody, human IgG1, kappa)
heavy: not shown
light: DIQMTQSPSSVSASVGDRVTITCKASQIVGSNVAWYQQKPGKAPEPLIYSASYLYSGVPSRFSGSGSGTDFTLTISSLQPEDFATYYCQQYSSHPLTFGQGTKLEIKRTVAAPSVFIFPPSDEQLKSGTASVVCLLNNFYPREAKVQWKVDNALQSGNSQESVTEQDSKDSTYSLSSTLTLSKADYEKHKVYACEVTHQGLSSPVTKSFNRGEC
notes: the full chains 206/207 are used here; also called 10D1F.A; anti-HER3 clone 10D1_c89 IgG1
With B1, the binding result with human EGFR [1] and with human HER2 [2] was “no binding (tested: last point at about log(M) -8.1)” each time.

B2: anti-HER3 clone 10D1_c90 IgG1 (antibody, V domains shown)
VH: QVQLQESGPGLVKPSQTLFLTCTVSGYSITSGYSWHWIRQHPGKGLEWIGSIRYSGGTDYNPSLKSLVTISVDTSKNQFSLKLSSVTAADTAVYYCARMTTAPWYPFDYWGQGTTVTVSS
VL: DIQMTQSPSSVSASVGDRVTFTCKASQIVGSNVAWYQQKPGKAPEPLIYSASYLYSSVPSRFSGSGSGTEFTMTISSLEPEDFATYYCQQYTTHPLTFGPGTKVEIKR
notes: IgG1/kappa
Consider B2, for which, in assay [3], the “% Parent (HER3 Positive)” value was found to be 41.9%.

B3: anti-HER3 clone 10D1 IgG1 (antibody)
heavy: not shown
light: DIVMTQSQKFMSTSVGDRVSVTCKASQIVGSNVAWYQQKPGQSPKPLIYSASYRYSGVPDRFTASGSGTDFTLTITNVQSEDLAEYFCQQYSSHPLTFGAGTKLELKRTVAAPSVFIFPPSDEQLKSGTASVVCLLNNFYPREAKVQWKVDNALQSGNSQESVTEQDSKDSTYSLSSTLTLSKADYEKHKVYACEVTHQGLSSPVTKSFNRGEC
notes: also called 10D1P; 10D1 (parental)
Regarding B3, the binding result with human HER2 [4] and with human EGFR [5] was “no binding (tested: about 2e-7 M (log -6.7))” throughout.
